The supplement of paper PMC12764529
± gives the half width of the 95% confidence interval.

Legend:
[1] = folding stability dG unfold from chymotrypsin proteolysis; higher = more stable
Outline: (§1)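 Sequencing followed digestion of designed mini-proteins with trypsin and chymotrypsin, each at 11 concentrations in threefold dilutions together with a no-protease condition. The mini-proteins were under 80 residues, had no cysteine, sat in a PA-tagged cDNA display construct, and were kept only if AlphaFold2 dimer inter-PAE was above 15. From the counts, Bayesian fitting gave K50, and unfolding free energy was derived against a sequence-predicted unfolded-state K50 and a shared folded-state K50, per protease or combined.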

[2] = folding stability dG unfold from trypsin proteolysis; higher = more stable
Outline: as §1

[3] = folding stability dG unfold (combined trypsin and chymotrypsin); higher = more stable
Outline: as §1

## SAGMKLTVTITDPATGKTYTITVKPGGETTVTNGSSTTSISIPTSDPKKVEELAEEIEPKGYTATITLESAG [r5_791_JUSTAS]
[1]
  folding stability dG unfold: 1.36 ± 0.17 kcal/mol
[2]
  folding stability dG unfold: 1.17 ± 0.018 kcal/mol
[3]
  folding stability dG unfold: 1.3 ± 0.086 kcal/mol

## SAGMKPLSDPEAQELAKEVAEKGYLVYTLKYPDGTVITVVSKSEEEVEALLEKSPYPIKEIVIIPPEKPSAG [r5_481_JUSTAS]
[1]
  folding stability dG unfold: 1.74 ± 0.098 kcal/mol
[2]
  folding stability dG unfold: 1.16 ± 0.082 kcal/mol
[3]
  folding stability dG unfold: 1.48 ± 0.12 kcal/mol

## SAGMKSLTITETVTDPNSDNPITIITDPVTGKVIKLYPDGTATVYDPNNPNKSTTYKMSPEEVIEKMSSSAG [r5_491_JUSTAS]
[1]
  folding stability dG unfold: 0.967 ± 0.088 kcal/mol
[2]
  folding stability dG unfold: 0.0921 ± 0.053 kcal/mol
[3]
  folding stability dG unfold: 0.673 ± 0.061 kcal/mol

## SAGMKTYTITVPASEAEEAAEKAAEEIKKELGLPDSDTVEVTVTSYDPKTGTVTITITVTRPLPGGLSLSAG [r5_537_JUSTAS]
[1]
  folding stability dG unfold: 1.76 ± 0.084 kcal/mol
[2]
  folding stability dG unfold: 2.74 ± 0.13 kcal/mol
[3]
  folding stability dG unfold: 2.19 ± 0.2 kcal/mol

## SAGMKVPVTVKMKAEKEEELEKVIKEIKEETGFEFEVEKNPETKEYTVKVYATPEVVEILKKKGFDVESAGG [r19_306_TrMRF]
[1]
  folding stability dG unfold: 3.2 ± 0.081 kcal/mol
[2]
  folding stability dG unfold: 1.9 ± 0.14 kcal/mol
[3]
  folding stability dG unfold: 2.77 ± 0.24 kcal/mol

## SAGMKYTAEVKVKEKDKEIDVTVSDDATFTDPEGKETTFKIGSEEELKKALEEIFPEKYPYEILSVKVLSAG [r14_41_JUSTAS]
[1]
  folding stability dG unfold: 0.156 ± 0.18 kcal/mol
[2]
  folding stability dG unfold: -0.65 ± 0.47 kcal/mol
[3]
  folding stability dG unfold: -0.0975 ± 0.2 kcal/mol

## SAGMLEISSDVLKALGIPVGATAEEVKERIQRRLEELGFEVEIPSVVIEELDPETGRVGVRIDLDLRPPSAG [r5_23_TrMRF]
[1]
  folding stability dG unfold: 2.23 ± 0.35 kcal/mol
[2]
  folding stability dG unfold: 3.05 ± 0.18 kcal/mol
[3]
  folding stability dG unfold: 2.5 ± 0.23 kcal/mol

## SAGMLKVKIKIEIEKDGKKIELEKEIEAESEEELLKAAEELAKELEKKGIKIKKIEVEVEKIPEPEEEESAG [r5_660_TrROS_Hall]
[1]
  folding stability dG unfold: 2.77 ± 0.055 kcal/mol
[2]
  folding stability dG unfold: 2.04 ± 0.12 kcal/mol
[3]
  folding stability dG unfold: 2.5 ± 0.12 kcal/mol

## SAGMLSSETVPFPDSEITIEYDPETGTVKITTTTTTSSPSLDYRTGKPGSVSSSTTTSFEVEAEPGAELSAG [r5_195_JUSTAS]
[1]
  folding stability dG unfold: 0.323 ± 0.17 kcal/mol
[2]
  folding stability dG unfold: 0.0129 ± 0.076 kcal/mol
[3]
  folding stability dG unfold: 0.254 ± 0.18 kcal/mol

## SAGMLTYRFTVPAEEAEEAAEELAETLRRELGLPEEVKVEVKVVEYDPETGLVTVEAVVYRPLPEGVEPSAG [r5_537_TrMRF]
[1]
  folding stability dG unfold: 4.44 ± 0.11 kcal/mol
[2]
  folding stability dG unfold: 4.21 ± 0.16 kcal/mol
[3]
  folding stability dG unfold: 4.5 ± 0.14 kcal/mol

## SAGMMKFPPGAKIKIVNKETGEEKEITLPEGAEVEFDEETGEVHIRVKVDGKEYRFTFKNGEIVEVEEVSAG [r5_22_TrROS_Hall]
[1]
  folding stability dG unfold: 4.3 ± 0.066 kcal/mol
[2]
  folding stability dG unfold: 3.23 ± 0.26 kcal/mol
[3]
  folding stability dG unfold: 3.73 ± 0.3 kcal/mol

## SAGMMLIEVEKNGEPVEVAEVKDDEITITLPKEKVRIRIVNADTGEEVEAEATVEDGTITIKLPPGVKLSAG [r5_469_TrROS_Hall]
[1]
  folding stability dG unfold: -0.794 ± 0.45 kcal/mol
[2]
  folding stability dG unfold: 0.669 ± 0.077 kcal/mol
[3]
  folding stability dG unfold: 0.232 ± 0.19 kcal/mol

## SAGMMTIEIELKNGKKIKIEVEKKNGKYIIKITVYDKNGKKVKEVKIEVPKKNMSLEEIIKEALKKLLKSAG [r5_630_TrROS_Hall]
[1]
  folding stability dG unfold: 3.71 ± 0.28 kcal/mol
[2]
  folding stability dG unfold: 2.83 ± 0.2 kcal/mol
[3]
  folding stability dG unfold: 3.73 ± 0.47 kcal/mol

## SAGMMTVEELKEKLKEAAEKAGVKVKEIKITGPDGKEITVEVDLSEEQLKKLAEELGLEIDEVEVREPSAGG [r19_50_TrROS_Hall]
[1]
  folding stability dG unfold: 1.75 ± 0.092 kcal/mol
[2]
  folding stability dG unfold: 1.3 ± 0.099 kcal/mol
[3]
  folding stability dG unfold: 1.67 ± 0.2 kcal/mol

## SAGMMVKVEIEFPLTLTTTEKVGTGPNGIPVFETREEIVVITFRATVPENPEEVAAAKEEAKAVAEALSSAG [r14_223_JUSTAS]
[1]
  folding stability dG unfold: 2.08 ± 0.11 kcal/mol
[2]
  folding stability dG unfold: 1.8 ± 0.042 kcal/mol
[3]
  folding stability dG unfold: 1.89 ± 0.2 kcal/mol

## SAGMMYKITIKTKNGEKIEIEIPAEELENLTEEQLKELAKELAKKLEEEGIEVEKVEVKIEPVKPEELSAGG [r19_334_TrROS_Hall]
[1]
  folding stability dG unfold: 2.93 ± 0.058 kcal/mol
[2]
  folding stability dG unfold: 3.3 ± 0.23 kcal/mol
[3]
  folding stability dG unfold: 3.04 ± 0.13 kcal/mol

## SAGMNLSPEEIAERIREEAKKKYPNSEVEVRIVSQPPTTIVLEVKITIYFPEEGGSIIEEPRVITIDRLSAG [r14_187_JUSTAS]
[1]
  folding stability dG unfold: 2.17 ± 0.13 kcal/mol
[2]
  folding stability dG unfold: 2.05 ± 0.076 kcal/mol
[3]
  folding stability dG unfold: 2.15 ± 0.13 kcal/mol

## SAGMPAGDFEPVKVEYTIKIPILNEGGGAAAPMPIKVKVEVYRMPNGNLFIKFEIEIPGGNKIEFWFPISAG [r5_580_TrROS]
[1]
  folding stability dG unfold: 4.32 ± 0.13 kcal/mol
[2]
  folding stability dG unfold: 2.67 ± 0.28 kcal/mol
[3]
  folding stability dG unfold: 3.99 ± 0.26 kcal/mol

## SAGMPETITIKIRNPETGKLYEIEIEKVDGEVKVTIRDVETGKERREITMTPEEVRELLKELGFEVEEVSAG [r5_291_TrROS_Hall]
[1]
  folding stability dG unfold: 3.1 ± 0.056 kcal/mol
[2]
  folding stability dG unfold: 1.42 ± 0.049 kcal/mol
[3]
  folding stability dG unfold: 2.63 ± 0.059 kcal/mol

## SAGMPGKIRVEVEAEISEDNVIKLKIKIYGPDGELIDEIEAEIYLPVPPLSPSEGGGLIEAGNPELAEGSAG [r5_944_TrMRF]
[1]
  folding stability dG unfold: 3.38 ± 0.092 kcal/mol
[2]
  folding stability dG unfold: 2.54 ± 0.2 kcal/mol
[3]
  folding stability dG unfold: 3.13 ± 0.13 kcal/mol

## SAGMPLRTVKVLVTINDKTEEKTLSEEELKALIESGELELLGKEPEENIVYVYKKVPPPVGSKTKKSLLSAG [r5_868_JUSTAS]
[1]
  folding stability dG unfold: 1.94 ± 0.17 kcal/mol
[2]
  folding stability dG unfold: 0.71 ± 0.29 kcal/mol
[3]
  folding stability dG unfold: 1.64 ± 0.27 kcal/mol

## SAGMPPPEEVFVVKVRFDGKELTLVVRVPPGMSAEEVAKKLAEELRKKFGPDIEVEVRRVSREELLEALSAG [r5_583_TrROS_Hall]
[1]
  folding stability dG unfold: 2.95 ± 0.12 kcal/mol
[2]
  folding stability dG unfold: 3.66 ± 0.13 kcal/mol
[3]
  folding stability dG unfold: 3.23 ± 0.18 kcal/mol

## SAGMPSFTTTSAPTEQLPELLAELATRPPNVSYTFPLPDPSRSLSLSVSADRITLTDPATGTTTTLPASAGG [r19_154_JUSTAS]
[1]
  folding stability dG unfold: -1.12 ± 0.51 kcal/mol
[2]
  folding stability dG unfold: -0.653 ± 0.17 kcal/mol
[3]
  folding stability dG unfold: -0.779 ± 0.2 kcal/mol

## SAGMPVTVTSTSDPENGSTTVPRTHPTGPVVTVTITKLPPGELRVTVDAGTTVTLYTLPPDALTTFTTPSAG [r5_14_JUSTAS]
[1]
  folding stability dG unfold: 0.13 ± 0.18 kcal/mol
[2]
  folding stability dG unfold: 0.51 ± 0.16 kcal/mol
[3]
  folding stability dG unfold: 0.339 ± 0.11 kcal/mol

## SAGMSADIPVDPVTGTLTITVTDAFNPDKSTTTTVPLSELEAELGRPLTLEEVAARVEAAGVATVTVGPSAG [r14_809_JUSTAS]
[1]
  folding stability dG unfold: -0.0285 ± 0.085 kcal/mol
[2]
  folding stability dG unfold: 1.46 ± 0.051 kcal/mol
[3]
  folding stability dG unfold: 0.82 ± 0.056 kcal/mol

## SAGMSEEERKAAEEASKPPVKVETLTVTVLVEVDGKLYLVRATITRVVLPDGSIVTELKIEIIPLEDLSAGG [r19_11_TrROS_Hall]
[1]
  folding stability dG unfold: 4.26 ± 0.33 kcal/mol
[2]
  folding stability dG unfold: 3.05 ± 0.21 kcal/mol
[3]
  folding stability dG unfold: 3.88 ± 0.3 kcal/mol

## SAGMSLVPLEELARAWAEERGLPVLDVEVPESRSPATRHVTITLTLRDPATGALTTETRELVIPEEELGSAG [r5_421_JUSTAS]
[1]
  folding stability dG unfold: 0.583 ± 0.096 kcal/mol
[2]
  folding stability dG unfold: 0.585 ± 0.077 kcal/mol
[3]
  folding stability dG unfold: 0.621 ± 0.1 kcal/mol

## SAGMTAEELAEELAKELEVEVTLENGEKRRVRVEVKVERLPDGTLLLTAKVENEETGETFEIKIEIKLESAG [r5_397_TrROS_Hall]
[1]
  folding stability dG unfold: 4.3 ± 0.37 kcal/mol
[2]
  folding stability dG unfold: 2.9 ± 0.13 kcal/mol
[3]
  folding stability dG unfold: 3.67 ± 0.33 kcal/mol

## SAGMTALFTDSSGKEVTFSHPNLELTVDPETGVVSAYEPESNLKVEVKVAPDKVTVTVYSGSSSKEIPLSAG [r5_786_JUSTAS]
[1]
  folding stability dG unfold: 0.956 ± 0.16 kcal/mol
[2]
  folding stability dG unfold: -0.226 ± 0.064 kcal/mol
[3]
  folding stability dG unfold: 0.574 ± 0.11 kcal/mol

## SAGMTFKNPGSDKTLTYEPETGAITLHNGDSVSTLPLPPGTSFTVTVDPEKGVVTITVPETGATITLPLSAG [r5_858_JUSTAS]
[1]
  folding stability dG unfold: 0.248 ± 0.22 kcal/mol
[2]
  folding stability dG unfold: 1.07 ± 0.028 kcal/mol
[3]
  folding stability dG unfold: 0.803 ± 0.11 kcal/mol

## SAGMTIEELRSLPPGARVTSVEYDEETEEVTVTVERTREDGKTETLTLTFRSREELEAALKAGADRIVFSAG [r5_905_TrROS_Hall]
[1]
  folding stability dG unfold: 1.16 ± 0.059 kcal/mol
[2]
  folding stability dG unfold: 1.731 ± 0.017 kcal/mol
[3]
  folding stability dG unfold: 1.54 ± 0.052 kcal/mol

## SAGMTIELPNATVTLERVPVPATGESAWVVTVTARHPDGSTPTVVAVFPEDTPPEDVLAAALALAEELESAG [r5_704_TrMRF]
[1]
  folding stability dG unfold: 4.62 ± 0.075 kcal/mol
[2]
  folding stability dG unfold: 4.75 ± 0.44 kcal/mol
[3]
  folding stability dG unfold: 4.78 ± 0.16 kcal/mol

## SAGMTIKIKNKKTNKVITIERRPDGTTVKVKVYDKNGKLVKTYPEGMTLEELLKKFPNAKVEVVEVEKPSAG [r5_314_TrROS_Hall]
[1]
  folding stability dG unfold: 0.559 ± 0.11 kcal/mol
[2]
  folding stability dG unfold: 1.47 ± 0.033 kcal/mol
[3]
  folding stability dG unfold: 1.14 ± 0.07 kcal/mol

## SAGMTLIIRVKVYNKDGELVEEREIEVPNMSVEEIAEALKKLPNVEKVKIEVFNADGEKKEIEIEVKPSAGG [r19_269_TrROS_Hall]
[1]
  folding stability dG unfold: 4.43 ± 0.064 kcal/mol
[2]
  folding stability dG unfold: 3.08 ± 0.13 kcal/mol
[3]
  folding stability dG unfold: 4.1 ± 0.09 kcal/mol

## SAGMTTLTLSAKAPPGEAVVTLTVTLPDGTTVPLATRTVAPDEVANITVSFPSGEPIDPARLTVEVTPPSAG [r5_287_JUSTAS]
[1]
  folding stability dG unfold: 0.137 ± 0.15 kcal/mol
[2]
  folding stability dG unfold: 0.0521 ± 0.14 kcal/mol
[3]
  folding stability dG unfold: 0.157 ± 0.13 kcal/mol

## SAGMTTTLTKGEDGVTLTFDLPGQSVTLTVPVPPDVEVTTSFPATGTTITGTPVGDTLTITVTVPAPASAGG [r19_384_JUSTAS]
[1]
  folding stability dG unfold: 1.52 ± 0.041 kcal/mol
[2]
  folding stability dG unfold: 1.78 ± 0.028 kcal/mol
[3]
  folding stability dG unfold: 1.69 ± 0.038 kcal/mol
